From paper PMC2782037 (The Journal of Biological Chemistry, 2009)

B1: FANCI-(1001–1328), hexahistidine-tagged (domain or fragment, human, UniProt Q9NVI1-3 1001-1328, looked up)
chain: PQFVQMLSWTSKICKENSREDALFCKSLMNLLFSLHVSYKSPVILLRDLSQDIHGHLGDIDQDVEVEKTNHFAIVNLRTAAPTVCLLVLSQAEKVLEEVDWLITKLKGQVSQETLSEEASSQATLPNQPVEKAIIMQLGTLLTFFHELVQTALPSGSCVDTLLKDLCKMYTTLTALVRYYLQVCQSSGGIPKNMEKLVKLSGSHLTPLCYSFISYVQNKSKSLNYTGEKKEKPAAVATAMARVLRETKPIPNLIFAIEQYEKFLIHLSKKSKVNLMQHMKLSTSRDFKIKGNILDMVLREDGEDENEEGTASEHGGQNKEPAKKKRKK
B2: FANCI-D1301A, hexahistidine-tagged (EDGE motif mutant) (natural protein, human, UniProt Q9NVI1-3 1-1328, looked up)
chain: MDQKILSLAAEKTADKLQEFLQTLREGDLTNLLQNQAVKGKVAGALLRAIFKGSPCSEEAGTLRRRKIYTCCIQLVESGDLQKEIASEIIGLLMLEAHHFPGPLLVELANEFISAVREGSLVNGKSLELLPIILTALATKKENLAYGKGVLSGEECKKQLINTLCSGRWDQQYVIQLTSMFKDVPLTAEEVEFVVEKALSMFSKMNLQEIPPLVYQLLVLSSKGSRKSVLEGIIAFFSALDKQHNEEQSGDELLDVVTVPSGELRHVEGTIILHIVFAIKLDYELGRELVKHLKVGQQGDSNNNLSPFSIALLLSVTRIQRFQDQVLDLLKTSVVKSFKDLQLLQGSKFLQNLVPHRSYVSTMILEVVKNSVHSWDHVTQGLVELGFILMDSYGPKKVLDGKTIETSPSLSRMPNQHACKLGANILLETFKIHEMIRQEILEQVLNRVVTRASSPISHFLDLLSNIVMYAPLVLQSCSSKVTEAFDYLSFLPLQTVQRLLKAVQPLLKVSMSMRDCLILVLRKAMFANQLDARKSAVAGFLLLLKNFKVLGSLSSSQCSQSLSVSQVHVDVHSHYNSVANETFCLEIMDSLRRCLSQQADVRLMLYEGFYDVLRRNSQLANSVMQTLLSQLKQFYEPKPDLLPPLKLEACILTQGDKISLQEPLDYLLCCIQHCLAWYKNTVIPLQQGEEEEEEEEAFYEDLDDILESITNRMIKSELEDFELDKSADFSQSTSIGIKNNICAFLVMGVCEVLIEYNFSISSFSKNRFEDILSLFMCYKKLSDILNEKAGKAKTKMANKTSDSLLSMKFVSSLLTALFRDSIQSHQESLSVLRSSNEFMRYAVNVALQKVQQLKETGHVSGPDGQNPEKIFQNLCDITRVLLWRYTSIPTSVEESGKKEKGKSISLLCLEGLQKIFSAVQQFYQPKIQQFLRALDVTDKEGEEREDADVSVTQRTAFQIRQFQRSLLNLLSSQEEDFNSKEALLLVTVLTSLSKLLEPSSPQFVQMLSWTSKICKENSREDALFCKSLMNLLFSLHVSYKSPVILLRDLSQDIHGHLGDIDQDVEVEKTNHFAIVNLRTAAPTVCLLVLSQAEKVLEEVDWLITKLKGQVSQETLSEEASSQATLPNQPVEKAIIMQLGTLLTFFHELVQTALPSGSCVDTLLKDLCKMYTTLTALVRYYLQVCQSSGGIPKNMEKLVKLSGSHLTPLCYSFISYVQNKSKSLNYTGEKKEKPAAVATAMARVLRETKPIPNLIFAIEQYEKFLIHLSKKSKVNLMQHMKLSTSRDFKIKGNILDMVLREAGEDENEEGTASEHGGQNKEPAKKKRKK

Target: Human FANCD2, non-tagged (human, UniProt Q9BXW9-2 1-1451)
Test: co-IP

Chain of Human FANCD2, non-tagged (Q9BXW9 whole entry): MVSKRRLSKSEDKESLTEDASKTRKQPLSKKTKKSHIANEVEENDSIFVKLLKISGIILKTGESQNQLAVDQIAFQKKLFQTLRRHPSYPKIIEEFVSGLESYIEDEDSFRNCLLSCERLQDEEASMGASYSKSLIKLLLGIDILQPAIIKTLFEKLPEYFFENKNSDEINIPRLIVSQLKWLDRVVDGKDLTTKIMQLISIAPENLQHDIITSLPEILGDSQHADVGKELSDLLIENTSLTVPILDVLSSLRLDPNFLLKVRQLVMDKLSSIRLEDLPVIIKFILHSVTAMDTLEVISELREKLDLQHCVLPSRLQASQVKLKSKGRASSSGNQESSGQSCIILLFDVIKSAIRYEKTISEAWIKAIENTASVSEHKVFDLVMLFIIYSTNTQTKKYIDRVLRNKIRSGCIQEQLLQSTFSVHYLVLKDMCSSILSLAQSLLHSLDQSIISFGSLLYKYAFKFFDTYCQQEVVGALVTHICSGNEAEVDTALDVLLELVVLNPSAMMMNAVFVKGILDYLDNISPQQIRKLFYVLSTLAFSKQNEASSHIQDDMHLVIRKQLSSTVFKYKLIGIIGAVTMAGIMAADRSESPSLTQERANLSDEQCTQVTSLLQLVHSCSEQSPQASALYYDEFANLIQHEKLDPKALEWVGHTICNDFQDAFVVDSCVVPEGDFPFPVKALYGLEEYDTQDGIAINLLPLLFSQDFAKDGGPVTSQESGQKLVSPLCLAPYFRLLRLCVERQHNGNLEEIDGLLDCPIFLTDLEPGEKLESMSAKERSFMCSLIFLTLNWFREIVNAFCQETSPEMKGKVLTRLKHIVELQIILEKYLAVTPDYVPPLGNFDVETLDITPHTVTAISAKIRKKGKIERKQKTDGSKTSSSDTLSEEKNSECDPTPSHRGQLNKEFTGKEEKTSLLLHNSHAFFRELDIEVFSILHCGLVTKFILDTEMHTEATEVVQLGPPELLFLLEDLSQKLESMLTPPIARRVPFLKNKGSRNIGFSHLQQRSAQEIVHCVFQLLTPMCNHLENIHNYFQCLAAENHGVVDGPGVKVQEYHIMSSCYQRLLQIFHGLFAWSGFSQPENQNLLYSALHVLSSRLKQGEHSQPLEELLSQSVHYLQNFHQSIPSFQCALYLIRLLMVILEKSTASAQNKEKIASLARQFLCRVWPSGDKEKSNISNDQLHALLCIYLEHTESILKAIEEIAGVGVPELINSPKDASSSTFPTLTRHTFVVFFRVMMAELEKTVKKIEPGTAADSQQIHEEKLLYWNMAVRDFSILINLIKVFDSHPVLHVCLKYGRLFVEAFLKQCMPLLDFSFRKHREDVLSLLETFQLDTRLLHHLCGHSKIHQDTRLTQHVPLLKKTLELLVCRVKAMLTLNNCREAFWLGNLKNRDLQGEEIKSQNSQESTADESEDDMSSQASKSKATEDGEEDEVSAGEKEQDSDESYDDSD

Binder	binding result
B1	binds
B2	binds
